Drawing on patent CN116930475A, this text covers 阳性率 (percent of T cells stained by labelled mesothelin) for one substance.

Assay [1] concerns the target 1444-CAR (CD8信号肽-(anti-MSLN)-CD8 hinge-CD28 TM-CD28IC-CD3z), expressed on the T cells of patient S0105's MSLN_CAR-T product, batch BZDS202012001. Kind of assay: flow cytometry, PE-mesothelin staining of S0105 CAR-T product, no serum.
The target of assay [2] is 2339-CAR (CD8信号肽-2339(anti-MSLN)-CD8hinge-CD28TM-CD28IC-CD3z), expressed on T cells of MSLN_CAR-T products (batch BZDS202101001 for patient S0106; same sequence for S0304). The experiment in a line: flow cytometry, PE-mesothelin staining of S0106 CAR-T product, no serum.
2339-CAR (CD8信号肽-2339(anti-MSLN)-CD8hinge-CD28TM-CD28IC-CD3z), expressed on T cells of MSLN_CAR-T products (batch BZDS202101001 for patient S0106; same sequence for S0304), sequence (chain, as listed by the source limits assumed): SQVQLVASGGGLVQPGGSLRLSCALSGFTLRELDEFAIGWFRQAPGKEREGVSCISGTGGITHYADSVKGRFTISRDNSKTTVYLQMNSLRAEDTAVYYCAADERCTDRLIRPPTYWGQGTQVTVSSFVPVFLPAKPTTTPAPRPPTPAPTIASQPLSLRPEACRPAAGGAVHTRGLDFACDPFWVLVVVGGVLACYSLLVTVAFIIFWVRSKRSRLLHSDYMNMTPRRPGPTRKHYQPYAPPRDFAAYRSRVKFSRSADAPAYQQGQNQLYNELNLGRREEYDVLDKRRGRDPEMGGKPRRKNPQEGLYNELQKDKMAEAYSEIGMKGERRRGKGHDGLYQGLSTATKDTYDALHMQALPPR
Assay [3] has the same target. The experiment in a line: flow cytometry, PE-mesothelin staining of CAR-T product (table for S0304), no serum.

1444-CAR (CD8信号肽-(anti-MSLN)-CD8 hinge-CD28 TM-CD28IC-CD3z), expressed on the T cells of patient S0105's MSLN_CAR-T product, batch BZDS202012001, sequence (chain, as listed by the source): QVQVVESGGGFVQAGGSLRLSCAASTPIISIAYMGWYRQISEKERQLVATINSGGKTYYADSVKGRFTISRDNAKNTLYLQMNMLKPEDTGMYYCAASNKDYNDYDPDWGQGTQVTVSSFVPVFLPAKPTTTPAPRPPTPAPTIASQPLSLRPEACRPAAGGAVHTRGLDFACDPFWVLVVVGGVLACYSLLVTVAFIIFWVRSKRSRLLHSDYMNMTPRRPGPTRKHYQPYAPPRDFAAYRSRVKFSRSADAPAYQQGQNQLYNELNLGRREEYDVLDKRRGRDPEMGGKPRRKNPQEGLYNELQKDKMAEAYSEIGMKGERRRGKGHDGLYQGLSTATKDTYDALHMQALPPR

In the case of “PE荧光标记的间皮素 (PE-labelled mesothelin, MSLN) (from UniProt Q13421 296-580) (ligand)”, the 阳性率 (percent of T cells stained by labelled mesothelin) was found to be 32.7% in assay [1], 96.8% in assay [2] and 96.8% in assay [3].
